3 molecules from PMC4409382, “Structural Analysis of the 14-3-3ζ/Chibby Interaction Involved in Wnt/β-Catenin Signaling” (PLoS ONE, 2015) can be followed below.

Square brackets hold non-standard residues; d marks the D form. Ends that are not written are not given here. pS = N[C@@H](COP(=O)(O)O)C(=O)O

This assay has as its target T1, 14-3-3ζ (human, UniProt P63104 1-245).
T1 construct: N-terminal glycine retained after TEV cleavage of the His tag; 14-3-3 zeta, human, ORF purchased from GeneCopoeia, full-length construct; Dimer (~56 kDa); the stoichiometry n counts on the 14-3-3 monomer; also called full-length 14-3-3ζ; source: E. coli BL21 (DE3) pLysS, purified (Ni Sepharose, TEV cleavage, second Ni Sepharose pass); not shown: His tag, N-terminal, cleaved
T1 sequence: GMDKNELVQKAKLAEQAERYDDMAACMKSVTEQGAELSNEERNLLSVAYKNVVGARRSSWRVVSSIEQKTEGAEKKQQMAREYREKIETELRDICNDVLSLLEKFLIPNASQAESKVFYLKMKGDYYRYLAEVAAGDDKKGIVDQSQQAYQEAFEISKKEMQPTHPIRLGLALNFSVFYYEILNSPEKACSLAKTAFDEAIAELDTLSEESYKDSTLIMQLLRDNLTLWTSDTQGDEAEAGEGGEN
The experiment in a line: ITC; duplicate set of titrations; 5 uL aliquots of ~1-2 mM peptide titrated into the 1.4 mL cell with ~100-200 uM 14-3-3ζ; 25 °C; 50 mM sodium phosphate, 100 mM NaCl, 1 mM DTT, pH 6.8; one-site model; n per 14-3-3 monomer. The note with it: both partners purified. In general terms: Isothermal titration calorimetry measures the heat released or taken up as one component is titrated into another.

B1: Cby 18-mer L24A (peptide)
peptide: KTPPRKSA[pS]LSNAHSLDR
notes: Chibby (Cby), human, residues 12-29 with L24A; also called Cby L24A 18-mer; source: synthetic peptide, bought (GenScript USA Inc. or TUFTS University Core Facility)
As to B1, the Kd amounted to 25 µM and the “stoichiometry N” value was found to be 1.05.

B2: pCby 7-mer (peptide)
peptide: Ac-RKSA[pS]LS-NH2
SMILES: CC(=O)N[C@@H](CCCNC(=N)N)C(=O)N[C@@H](CCCCN)C(=O)N[C@@H](CO)C(=O)N[C@@H](C)C(=O)N[C@@H](COP(=O)(O)O)C(=O)N[C@@H](CC(C)C)C(=O)N[C@@H](CO)C(N)=O
notes: Chibby (Cby), human, residues 16-22; also called 16RKSA(pS)LS22; source: synthetic peptide, bought: TUFTS University Core Facility
As to B2, the Kd came to 47.6 µM and the “stoichiometry N” value stood at 0.94.

B3: pCby S22P 7-mer (peptide)
peptide: Ac-RKSA[pS]LP-NH2
SMILES: CC(=O)N[C@@H](CCCNC(=N)N)C(=O)N[C@@H](CCCCN)C(=O)N[C@@H](CO)C(=O)N[C@@H](C)C(=O)N[C@@H](COP(=O)(O)O)C(=O)N[C@@H](CC(C)C)C(=O)N1CCC[C@H]1C(N)=O
notes: Chibby (Cby), human, residues 16-22 with S22P; also called Cby 7-mer S22P; 16RKSA(pS)LP22; source: synthetic peptide, bought: TUFTS University Core Facility
Turning to B3, the affinity, expressed as Kd, was 3.2 µM and the “stoichiometry N” value came out at 1.02.

One may read the Kd as the concentration at which binding is half-saturated. Read a high Kd as a looser complex. Usually stoichiometry N stands for a count of units in the complex or per binding partner.
